From patent US20210087294A1 (University of Pennsylvania, published 2021) come the findings set out here.

Test [1] addresses T1, human fibroblast activation protein (FAP) (human, UniProt Q12884 1-760).
T1 construct: whole, on cells; also called human FAP; huFAP
T1 sequence (looked up): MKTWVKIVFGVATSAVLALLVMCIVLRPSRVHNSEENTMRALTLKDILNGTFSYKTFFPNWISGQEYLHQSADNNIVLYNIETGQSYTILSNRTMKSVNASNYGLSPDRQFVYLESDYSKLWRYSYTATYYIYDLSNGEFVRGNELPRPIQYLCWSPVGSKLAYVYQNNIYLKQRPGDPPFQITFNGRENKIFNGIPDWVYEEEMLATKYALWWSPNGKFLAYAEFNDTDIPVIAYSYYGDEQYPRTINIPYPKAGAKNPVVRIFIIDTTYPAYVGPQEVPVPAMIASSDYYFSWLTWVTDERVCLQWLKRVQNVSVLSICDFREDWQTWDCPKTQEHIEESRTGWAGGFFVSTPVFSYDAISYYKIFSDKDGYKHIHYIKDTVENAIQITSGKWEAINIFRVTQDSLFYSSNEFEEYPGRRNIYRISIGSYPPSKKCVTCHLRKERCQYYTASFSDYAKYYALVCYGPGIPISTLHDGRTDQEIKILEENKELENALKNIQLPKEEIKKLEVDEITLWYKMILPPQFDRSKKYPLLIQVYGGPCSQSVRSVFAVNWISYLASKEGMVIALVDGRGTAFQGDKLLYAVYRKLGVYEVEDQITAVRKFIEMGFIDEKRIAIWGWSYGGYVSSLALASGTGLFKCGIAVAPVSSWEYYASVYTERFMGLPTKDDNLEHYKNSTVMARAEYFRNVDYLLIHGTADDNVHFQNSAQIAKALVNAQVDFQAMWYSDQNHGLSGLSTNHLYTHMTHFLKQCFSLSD
In words: flow cytometry on human primary fibroblasts and on BALB/c 3T3 cells expressing a human FAP transgene. An excerpt:
(§1) On day 241, 2017 spleens were harvested, a single cell suspension prepared, and splenocytes fused with sp2/0 cells by the UPENN Hybridoma Core Facility. Hyridomas supernatants were initially screened by FACS on MC KOSA parental (FAP null) vs. canine FAP-transgene expressing MC KOSA.K9FAP using hybridoma supernatants as the primary antibodies and AF488 goat anti-mouseIgG as a secondary. Clone 4G5 identified as reactive to transduced cells but not parental cells and screened on additional cells to confirm reactivity with FAP expressing but not FAP-negative cells: Human primary fibroblasts, BALB/c 3T3 expressing murine or human FAP transgenes, canine primary fibroblasts, SK KOSA (FAP expressing), and BALB/c 3T3 (FAP negative) cells. 4G5 was then determined to be an IgG1k isotype antibody using (Thermo Fisher Rapid ELISA Mouse mAb Isotyping Kit #37503)
(§2) BALB/c 3T3 fibroblast cells transduced to express full-length canine FAP were then used to immunize 14 week old BALB/c FAP^{-/-} mice. All injections were given intraperitoneally and consisted of 1×10⁷ cells in 0.5 ml sterile PBS. The initial immunization was followed by six booster immunizations at regular intervals over the next eight months. At the conclusion of the study, spleens were harvested, and the resulting single-cell suspensions were used to generate hybridomas via fusion with sp2/0 cells. […]
For orientation: A flow cytometer gives signals particle by particle.

In test [2] the target is T2, murine fibroblast activation protein (FAP) (murine, UniProt P97321 1-761).
T2 construct: whole, on cells; also called mouse FAP; murine FAP
T2 sequence (looked up): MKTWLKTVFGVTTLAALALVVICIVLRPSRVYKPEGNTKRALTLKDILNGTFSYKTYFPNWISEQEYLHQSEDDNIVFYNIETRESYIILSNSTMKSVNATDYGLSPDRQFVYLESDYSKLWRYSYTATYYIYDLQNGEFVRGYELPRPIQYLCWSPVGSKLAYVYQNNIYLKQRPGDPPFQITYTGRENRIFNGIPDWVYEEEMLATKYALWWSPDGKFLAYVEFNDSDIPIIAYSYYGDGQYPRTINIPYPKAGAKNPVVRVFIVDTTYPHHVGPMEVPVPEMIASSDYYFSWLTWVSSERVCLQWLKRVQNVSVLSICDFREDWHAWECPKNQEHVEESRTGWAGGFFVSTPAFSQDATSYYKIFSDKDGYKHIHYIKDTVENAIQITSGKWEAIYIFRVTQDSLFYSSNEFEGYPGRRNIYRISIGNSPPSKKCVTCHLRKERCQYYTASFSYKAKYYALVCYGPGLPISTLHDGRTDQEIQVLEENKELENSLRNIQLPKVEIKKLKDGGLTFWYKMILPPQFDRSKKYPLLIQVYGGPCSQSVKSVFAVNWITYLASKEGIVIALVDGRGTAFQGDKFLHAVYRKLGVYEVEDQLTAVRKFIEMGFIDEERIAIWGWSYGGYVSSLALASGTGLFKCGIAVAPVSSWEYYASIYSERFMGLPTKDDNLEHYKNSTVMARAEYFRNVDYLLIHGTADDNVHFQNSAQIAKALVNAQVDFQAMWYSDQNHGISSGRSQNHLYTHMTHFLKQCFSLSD
The test is described as follows: flow cytometry on BALB/c 3T3 cells expressing a murine FAP transgene.
Description: as §1, §2

B1: 4G5 anti-canine FAP antibody (antibody, V domains shown)
VH: QVQLQQPGAELVKPGASVKLSCKASGYTITSYSLHWVKQRPGQGLEWIGEINPANGDHNFSEKFEIKATLTVDSSSNTAFMQLSRLTSEDSAVYYCTRLDDSRFHWYFDVWGAGTTVTVSS
VL: QIVLTQSPALMSASPGEKVTMTCTASSSVSYMYWYQQKPRSSPKPWIFLTSNLASGVPARFSGRGSGTSFSLTISSMEAEDAATYYCQQWSGYPPITFGSGTKLEIK
notes: Mouse hybridoma monoclonal antibody, tested as hybridoma supernatant or immunoglobulin; also called clone 4G5; 4G5 immunoglobulin
On to B1, for which the binding result in test [1] and in test [2] was “binds” each time.
